Data published in patent US20100003237.

Experiments:
[1] = biological target: FITC-labeled collagen (Elastin #CF308)
[2] = biological target: FITC-labeled collagen (Sigma #C4361)
[3] = biological target: insoluble collagen conjugated to fluorescein isothiocyanate (FITC) (Anaspec #85111 or Sigma Collagen #C4361)
[4] = biological target: Soluble rat tail collagen Type I, P02454
Chain of Soluble rat tail collagen Type I, P02454 (P02454 152-1207, chain 1 of 2): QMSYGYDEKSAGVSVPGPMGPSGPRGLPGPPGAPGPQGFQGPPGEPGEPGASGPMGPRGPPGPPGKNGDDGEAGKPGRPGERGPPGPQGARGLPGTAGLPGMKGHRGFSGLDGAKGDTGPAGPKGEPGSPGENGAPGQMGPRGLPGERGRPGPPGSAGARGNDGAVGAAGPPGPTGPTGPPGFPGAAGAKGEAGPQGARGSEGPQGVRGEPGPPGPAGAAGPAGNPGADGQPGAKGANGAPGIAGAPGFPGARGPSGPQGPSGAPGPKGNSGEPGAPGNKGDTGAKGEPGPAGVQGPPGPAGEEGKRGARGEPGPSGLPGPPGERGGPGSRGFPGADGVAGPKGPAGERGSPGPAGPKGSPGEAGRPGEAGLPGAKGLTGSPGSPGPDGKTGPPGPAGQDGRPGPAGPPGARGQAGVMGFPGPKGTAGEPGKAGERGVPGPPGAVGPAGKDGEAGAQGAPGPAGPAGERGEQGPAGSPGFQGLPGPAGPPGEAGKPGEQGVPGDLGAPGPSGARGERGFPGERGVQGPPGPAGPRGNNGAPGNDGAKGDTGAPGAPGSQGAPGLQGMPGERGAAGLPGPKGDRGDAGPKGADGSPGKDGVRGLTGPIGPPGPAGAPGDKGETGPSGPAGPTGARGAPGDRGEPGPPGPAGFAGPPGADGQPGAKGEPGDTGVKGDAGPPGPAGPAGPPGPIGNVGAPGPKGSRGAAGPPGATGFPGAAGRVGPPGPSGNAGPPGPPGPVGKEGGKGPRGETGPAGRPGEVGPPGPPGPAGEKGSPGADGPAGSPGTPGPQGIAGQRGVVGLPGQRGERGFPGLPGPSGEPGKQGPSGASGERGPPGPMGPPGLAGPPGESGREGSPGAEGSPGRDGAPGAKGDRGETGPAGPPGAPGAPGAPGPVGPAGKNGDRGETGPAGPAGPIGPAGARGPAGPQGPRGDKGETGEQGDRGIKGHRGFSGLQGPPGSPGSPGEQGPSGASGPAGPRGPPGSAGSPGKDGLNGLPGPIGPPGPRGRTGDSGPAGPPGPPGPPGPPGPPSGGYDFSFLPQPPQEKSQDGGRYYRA
Chain of Soluble rat tail collagen Type I, P02454 (chain, as listed by the source, chain 2 of 2): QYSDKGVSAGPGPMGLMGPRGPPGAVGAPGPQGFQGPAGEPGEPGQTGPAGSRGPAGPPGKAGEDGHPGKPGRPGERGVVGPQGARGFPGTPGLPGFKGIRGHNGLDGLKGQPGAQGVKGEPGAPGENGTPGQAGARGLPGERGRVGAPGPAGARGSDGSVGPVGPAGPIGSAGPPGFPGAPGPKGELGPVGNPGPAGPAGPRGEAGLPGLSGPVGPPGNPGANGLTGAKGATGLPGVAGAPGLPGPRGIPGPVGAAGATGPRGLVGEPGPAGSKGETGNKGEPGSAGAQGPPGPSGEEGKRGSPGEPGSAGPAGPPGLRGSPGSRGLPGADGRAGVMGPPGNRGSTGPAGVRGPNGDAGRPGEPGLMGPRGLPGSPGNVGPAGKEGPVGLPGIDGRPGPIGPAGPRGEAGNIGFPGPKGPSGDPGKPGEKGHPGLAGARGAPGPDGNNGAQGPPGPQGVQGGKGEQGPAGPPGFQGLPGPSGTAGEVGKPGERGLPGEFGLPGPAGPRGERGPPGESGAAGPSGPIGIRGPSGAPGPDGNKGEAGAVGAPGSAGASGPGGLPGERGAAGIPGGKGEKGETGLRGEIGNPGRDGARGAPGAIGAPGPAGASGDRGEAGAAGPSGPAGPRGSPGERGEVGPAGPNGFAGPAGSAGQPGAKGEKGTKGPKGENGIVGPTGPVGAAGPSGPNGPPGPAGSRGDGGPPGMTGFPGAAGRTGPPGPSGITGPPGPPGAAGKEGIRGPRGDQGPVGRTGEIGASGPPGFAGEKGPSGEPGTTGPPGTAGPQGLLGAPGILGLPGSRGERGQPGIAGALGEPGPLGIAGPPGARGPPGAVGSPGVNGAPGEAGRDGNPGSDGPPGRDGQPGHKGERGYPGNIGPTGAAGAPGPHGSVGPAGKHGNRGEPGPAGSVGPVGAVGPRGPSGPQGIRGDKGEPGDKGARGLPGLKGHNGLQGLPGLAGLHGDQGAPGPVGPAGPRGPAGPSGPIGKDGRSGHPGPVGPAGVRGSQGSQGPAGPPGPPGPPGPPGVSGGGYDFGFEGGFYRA

B1: Wild type hMMP-1 clone BAP006-2 (expressed in CHO-S cells), activated with AMPA (protein)
chain: FVLTEGNPRWEQTHLTYRIENYTPDLPRADVDHAIEKAFQLWSNVTPLTFTKVSEGQADIMISFVRGDHRDNSPFDGPGGNLAHAFQPGPGIGGDAHFDEDERWTNNFREYNLHRVAAHELGHSLGLSHSTDIGALMYPSYTFSGDVQLAQDDIDGIQAIYGRSQNPVQPIGPQTPKACDSKLTFDAITTIRGEVMFFKDRFYMRTNPFYPEVELNFISVFWPQLPNGLEAAYEFADRDEVRFFKGNKYWAVQGQNVLHGYPKDIYSSFGFPRTVKHIDAALSEENTGKTYFFVANKYWRYDEYKRSMDPGYPKMIAHDFPGIGHKVDAVFMKDGFFYFFHGTRQYKFDPKTKRILTLQKANSWFNCRKN
RFU, 37° C. (fluorescence of supernatant after 144 hours, replicate 1) [1]: 1730 RFU
RFU, 37° C. (fluorescence of supernatant after 144 hours, replicate 2) [1]: 2300 RFU
RFU, Avg 37° C. (fluorescence of supernatant after 144 hours) [1]: 2010 RFU
RFU, 37° C. (fluorescence of supernatant after 144 hours, replicate 1) [2]: 1270 RFU
RFU, 37° C. (fluorescence of supernatant after 144 hours, replicate 2) [2]: 1280 RFU
RFU, Avg 37° C. (fluorescence of supernatant after 144 hours) [2]: 1270 RFU
cleavage of insoluble collagen (7.5% SDS polyacrylamide gel, Coomassie Blue) [3]: after 24 hours incubation at 25 °C or 37° C., hMMP-1 partially cleaved the α1(I) and α2(I) collagen chains into ¾ and ¼ length digestion products for all hMMP-1 proteins tested

B2: hMMP-1 (purchased from R&D Systems, #901-MP), activated with AMPA (protein)
chain: FVLTEGNPRWEQTHLTYRIENYTPDLPRADVDHAIEKAFQLWSNVTPLTFTKVSEGQADIMISFVRGDHRDNSPFDGPGGNLAHAFQPGPGIGGDAHFDEDERWTNNFREYNLHRVAAHELGHSLGLSHSTDIGALMYPSYTFSGDVQLAQDDIDGIQAIYGRSQNPVQPIGPQTPKACDSKLTFDAITTIRGEVMFFKDRFYMRTNPFYPEVELNFISVFWPQLPNGLEAAYEFADRDEVRFFKGNKYWAVQGQNVLHGYPKDIYSSFGFPRTVKHIDAALSEENTGKTYFFVANKYWRYDEYKRSMDPGYPKMIAHDFPGIGHKVDAVFMKDGFFYFFHGTRQYKFDPKTKRILTLQKANSWFNCRKN
RFU, 37° C. (fluorescence of supernatant after 144 hours, replicate 1) [1]: 3490 RFU
RFU, 37° C. (fluorescence of supernatant after 144 hours, replicate 2) [1]: 2980 RFU
RFU, Avg 37° C. (fluorescence of supernatant after 144 hours) [1]: 3240 RFU
RFU, 37° C. (fluorescence of supernatant after 144 hours, replicate 1) [2]: 1160 RFU
RFU, 37° C. (fluorescence of supernatant after 144 hours, replicate 2) [2]: 1140 RFU
RFU, Avg 37° C. (fluorescence of supernatant after 144 hours) [2]: 1150 RFU
cleavage of insoluble collagen (7.5% SDS polyacrylamide gel, Coomassie Blue) [3]: after 24 hours incubation at 25 °C or 37° C., hMMP-1 partially cleaved the α1(I) and α2(I) collagen chains into ¾ and ¼ length digestion products for all hMMP-1 proteins tested

B3: cathepsin S (R&D systems, activated) (protein)
chain: LPDSVDWREKGCVTEVKYQGSCGACWAFSAVGALEAQLKLKTGKLVSLSAQNLVDCSTEKYGNKGCNGGFMTTAFQYIIDNKGIDSDASYPYKAMDQKCQYDSKYRAATCSKYTELPYGREDVLKEAVANKGPVSVGVDARHPSFFLYRSGVYYEPSCTQNVNHGVLVVGYGDLNGKEYWLVKNSWGHNFGEEGYIRMARNKGNHCGIASFPSYPEI
degradation of soluble rat tail collagen Type I (1 hour at 37° C., SDS-Page gels, Coomassie Blue staining) [4]: Cathepsins B, D and S showed some slight degradation of rat collagen at the manufacture specified pH and no degradation of rat collagen at pH 8.0

B4: Wild type hMMP-1 clone BAP006-10 (pET303CTHis, expressed in BL21 (DE3) E. coli), activated with AMPA (protein)
chain: FVLTEGNPRWEQTHLTYRIENYTPDLPRADVDHAIEKAFQLWSNVTPLTFTKVSEGQADIMISFVRGDHRDNSPFDGPGGNLAHAFQPGPGIGGDAHFDEDERWTNNFREYNLHRVAAHELGHSLGLSHSTDIGALMYPSYTFSGDVQLAQDDIDGIQAIYGRSQNPVQPIGPQTPKACDSKLTFDAITTIRGEVMFFKDRFYMRTNPFYPEVELNFISVFWPQLPNGLEAAYEFADRDEVRFFKGNKYWAVQGQNVLHGYPKDIYSSFGFPRTVKHIDAALSEENTGKTYFFVANKYWRYDEYKRSMDPGYPKMIAHDFPGIGHKVDAVFMKDGFFYFFHGTRQYKFDPKTKRILTLQKANSWFNCRKNHHHHH
RFU, 37° C. (fluorescence of supernatant after 144 hours, replicate 1) [1]: 2670 RFU
RFU, 37° C. (fluorescence of supernatant after 144 hours, replicate 2) [1]: 3060 RFU
RFU, Avg 37° C. (fluorescence of supernatant after 144 hours) [1]: 2860 RFU
RFU, 37° C. (fluorescence of supernatant after 144 hours, replicate 1) [2]: 1290 RFU
RFU, 37° C. (fluorescence of supernatant after 144 hours, replicate 2) [2]: 1340 RFU
RFU, Avg 37° C. (fluorescence of supernatant after 144 hours) [2]: 1310 RFU
cleavage of insoluble collagen (7.5% SDS polyacrylamide gel, Coomassie Blue) [3]: after 24 hours incubation at 25 °C or 37° C., hMMP-1 partially cleaved the α1(I) and α2(I) collagen chains into ¾ and ¼ length digestion products for all hMMP-1 proteins tested
